To fix the notation:
B1: Homeobox protein cut-like 1, residues 548 to 629; numbered along this chain, P39880 (parent)
chain: GEEMDTAEIARQVKEQLIKHNIGQRIFGHYVLGLSQGSVSEILARPKPWNKLTVRGKEPFHKMKQFLSDEQNILALRSIQGR

± gives the uncertainty stated by the source.

The series covers variants of B1. As to the kind of experiment: abundance fitness (aPCA) (normalised: wild type 0, dead -1); higher = more abundant; growth selection in yeast, the domain comes from the species named. To be noted: Homo sapiens.
Turning to GEEMDTAEIARQVKEQLIKHNIGQRIFGHYVLGLSQGSVSEILARPKPWNKLTVRGKEPFHKMKQFLSDEQNILALRSCQGR, the abundance fitness was 0.003 ± 0.055. To GEEMDTAEIARQVKEQLIKHNIGQRIFGHYVLGLSQGSVSEILARPKPWNKLTVRGKEPFHKMKQFLSDEQNILALRSFQGR belongs -0.086 ± 0.056. The value for GEEMDTAEIARQVKEQLIKHNIGQRIFGHYVLGLSQGSVSEILARPKPWNKLTVRGKEPFHKMKQFLSDEQNILALRSPQGR was -0.229 ± 0.041; that for GEEMDTAEIARQVKEQLIKHNIGQRIFGHYVLGLSQGSVSEILARPKPWNKLTVRGKEPFHKMKQFLSDEQNILALRSWQGR was -0.09 ± 0.04. To GEEMDTAEIARQVKEQLIKHNIGQRIFGHYVLGLSQGSVSEILARPKPWNKLTVRGKEPFHKMKQFLSDEQNILALRSMQGR belongs 0.046 ± 0.039. Turning to GEEMDTAEIARQVKEQLIKHNIGQRIFGHYVLGLSQGSVSEILARPKPWNKLTVRGKEPFHKMKQFLSDEQNILALRSYQGR, the abundance fitness was -0.097 ± 0.061. The value for GEEMDTAEIARQVKEQLIKHNIGQRIFGHYVLGLSQGSVSEILARPKPWNKLTVRGKEPFHKMKQFLSDEQNILALRSGQGR was -0.203 ± 0.027.

On to GEEMDTAEIARQVKEQLIKHNIGQRIFGHYVLGLSQGSVSEILARPKPWNKLTVRGKEPFHKMKQFLSDEQNILALRSVQGR, for which the abundance fitness worked out at 0.015 ± 0.028.

Consider GEEMDTAEIARQVKEQLIKHNIGQRIFGHYVLGLSQGSVSEILARPKPWNKLTVRGKEPFHKMKQFLSDEQNILALRSLQGR, for which the abundance fitness amounted to 0.028 ± 0.03. To GEEMDTAEIARQVKEQLIKHNIGQRIFGHYVLGLSQGSVSEILARPKPWNKLTVRGKEPFHKMKQFLSDEQNILALRSDQGR belongs -0.233 ± 0.055; to GEEMDTAEIARQVKEQLIKHNIGQRIFGHYVLGLSQGSVSEILARPKPWNKLTVRGKEPFHKMKQFLSDEQNILALRSHQGR, -0.009 ± 0.05.

For the variant GEEMDTAEIARQVKEQLIKHNIGQRIFGHYVLGLSQGSVSEILARPKPWNKLTVRGKEPFHKMKQFLSDEQNILALRSRQGR, the abundance fitness is -0.065 ± 0.027. For GEEMDTAEIARQVKEQLIKHNIGQRIFGHYVLGLSQGSVSEILARPKPWNKLTVRGKEPFHKMKQFLSDEQNILALRSTQGR, the abundance fitness is -0.157 ± 0.037. With GEEMDTAEIARQVKEQLIKHNIGQRIFGHYVLGLSQGSVSEILARPKPWNKLTVRGKEPFHKMKQFLSDEQNILALRSKQGR, the abundance fitness stood at 0.038 ± 0.041.

Regarding GEEMDTAEIARQVKEQLIKHNIGQRIFGHYVLGLSQGSVSEILARPKPWNKLTVRGKEPFHKMKQFLSDEQNILALRSAQGR, the abundance fitness is -0.047 ± 0.03. To GEEMDTAEIARQVKEQLIKHNIGQRIFGHYVLGLSQGSVSEILARPKPWNKLTVRGKEPFHKMKQFLSDEQNILALRSQQGR belongs 0.011 ± 0.039; to GEEMDTAEIARQVKEQLIKHNIGQRIFGHYVLGLSQGSVSEILARPKPWNKLTVRGKEPFHKMKQFLSDEQNILALRSEQGR, -0.058 ± 0.034; to GEEMDTAEIARQVKEQLIKHNIGQRIFGHYVLGLSQGSVSEILARPKPWNKLTVRGKEPFHKMKQFLSDEQNILALRSIQGD, -0.092 ± 0.07.

For the variant GEEMDTAEIARQVKEQLIKHNIGQRIFGHYVLGLSQGSVSEILARPKPWNKLTVRGKEPFHKMKQFLSDEQNILALRSIQGA, the abundance fitness is 0.013 ± 0.047.

GEEMDTAEIARQVKEQLIKHNIGQRIFGHYVLGLSQGSVSEILARPKPWNKLTVRGKEPFHKMKQFLSDEQNILALRSIQGC: the abundance fitness is -0.054 ± 0.076. To GEEMDTAEIARQVKEQLIKHNIGQRIFGHYVLGLSQGSVSEILARPKPWNKLTVRGKEPFHKMKQFLSDEQNILALRSIQGG belongs 0.117 ± 0.035; to GEEMDTAEIARQVKEQLIKHNIGQRIFGHYVLGLSQGSVSEILARPKPWNKLTVRGKEPFHKMKQFLSDEQNILALRSIQGE, 0.047 ± 0.05; to GEEMDTAEIARQVKEQLIKHNIGQRIFGHYVLGLSQGSVSEILARPKPWNKLTVRGKEPFHKMKQFLSDEQNILALRSIQGH, 0.063 ± 0.13.

In the case of GEEMDTAEIARQVKEQLIKHNIGQRIFGHYVLGLSQGSVSEILARPKPWNKLTVRGKEPFHKMKQFLSDEQNILALRSIQWR, the abundance fitness was -0.077 ± 0.052. To GEEMDTAEIARQVKEQLIKHNIGQRIFGHYVLGLSQGSVSEILARPKPWNKLTVRGKEPFHKMKQFLSDEQNILALRSIQHR belongs 0.04 ± 0.08; to GEEMDTAEIARQVKEQLIKHNIGQRIFGHYVLGLSQGSVSEILARPKPWNKLTVRGKEPFHKMKQFLSDEQNILALRSIQSR, -0.028 ± 0.038; to GEEMDTAEIARQVKEQLIKHNIGQRIFGHYVLGLSQGSVSEILARPKPWNKLTVRGKEPFHKMKQFLSDEQNILALRSIQTR, 0.037 ± 0.047. To GEEMDTAEIARQVKEQLIKHNIGQRIFGHYVLGLSQGSVSEILARPKPWNKLTVRGKEPFHKMKQFLSDEQNILALRSIQLR belongs -0.097 ± 0.042.

Consider GEEMDTAEIARQVKEQLIKHNIGQRIFGHYVLGLSQGSVSEILARPKPWNKLTVRGKEPFHKMKQFLSDEQNILALRSIQNR, for which the abundance fitness is 0.117 ± 0.065. Regarding GEEMDTAEIARQVKEQLIKHNIGQRIFGHYVLGLSQGSVSEILARPKPWNKLTVRGKEPFHKMKQFLSDEQNILALRSIQPR, the abundance fitness is -0.103 ± 0.077. To GEEMDTAEIARQVKEQLIKHNIGQRIFGHYVLGLSQGSVSEILARPKPWNKLTVRGKEPFHKMKQFLSDEQNILALRSIQQR belongs 0.095 ± 0.054; to GEEMDTAEIARQVKEQLIKHNIGQRIFGHYVLGLSQGSVSEILARPKPWNKLTVRGKEPFHKMKQFLSDEQNILALRSIQCR, 0.027 ± 0.047. The value for GEEMDTAEIARQVKEQLIKHNIGQRIFGHYVLGLSQGSVSEILARPKPWNKLTVRGKEPFHKMKQFLSDEQNILALRSIQAR was 0.044 ± 0.037.

These data come from the Human Domainome abundance scans (Beltran et al. 2025).
